Results published in patent US7662384B2, “Use of anti-α5β1 antibodies to inhibit cancer cell proliferation” (Facet Biotech Corporation, priority 2004, dated 2010).

What was measured:
Experiment in all cases: FACS analysis of cancer cell line with IIA1
Format in all cases: binding
[1] = target: T1, α5β1 integrin on the cell surface of H460 (Homo sapiens, UniProt P05556+P08648); conditions: H460 (lung); IIA1 10 μg/ml; background MFI ~5
T1 construct: endogenous in cells
Procedure: (§1) Cells were removed with 5 mM EDTA in Tris-HCl (pH 8.0) and blocked by centrifugation in Hank's balanced salt solution containing 3% heat inactivated FBS, 1% normal goat serum (Sigma) and 1% BSA at 4° C. for 5 minutes. Cells were incubated for 30-60 minutes at 4° C. with the mouse anti-α5β1 antibody, IIA1 (10 μg/ml) in FACS buffer (PBS containing 0.1% BSA). Excess monoclonal antibody was removed by centrifugation and cells were washed two times with FACS buffer prior to resuspending in PE-anti-mouse IgG (H+ L) antibody (Southern Biotech, 1:400 dilution) for 30-60 minutes at 4° C. After washing cells were re-suspended in FACS buffer containing propidium iodide (1 μg/ml). Mean fluorescence intensity (MFI) was measured on a FACSCalibur (Becton Dickinson). Background MFI was ˜5.

[2] = target: T2, α5β1 integrin on the cell surface of A498 (Homo sapiens, UniProt P05556+P08648); conditions: A498 (renal); IIA1 10 μg/ml; background MFI ~5
T2 construct: endogenous in cells
Procedure: as §1

[3] = target: T3, α5β1 integrin on the cell surface of LOX (Homo sapiens, UniProt P05556+P08648); conditions: LOX (melanoma); IIA1 10 μg/ml; background MFI ~5
T3 construct: endogenous in cells
Procedure: as §1

[4] = target: T4, α5β1 integrin on the cell surface of NW231 (Homo sapiens, UniProt P05556+P08648); conditions: NW231 (breast); IIA1 10 μg/ml; background MFI ~5
T4 construct: endogenous in cells
Procedure: as §1

[5] = target: T5, α5β1 integrin on the cell surface of TK-10 (Homo sapiens, UniProt P05556+P08648); conditions: TK-10 (renal); IIA1 10 μg/ml; background MFI ~5
T5 construct: endogenous in cells
Procedure: as §1

[6] = target: T6, α5β1 integrin on the cell surface of UACC-62 (Homo sapiens, UniProt P05556+P08648); conditions: UACC-62 (melanoma); IIA1 10 μg/ml; background MFI ~5
T6 construct: endogenous in cells
Procedure: as §1

[7] = target: T7, α5β1 integrin on the cell surface of HCT-116 (Homo sapiens, UniProt P05556+P08648); conditions: HCT-116 (colon); IIA1 10 μg/ml; background MFI ~5
T7 construct: endogenous in cells
Procedure: as §1

[8] = target: T8, α5β1 integrin on the cell surface of C32 (Homo sapiens, UniProt P05556+P08648); conditions: C32 (melanoma); IIA1 10 μg/ml; background MFI ~5
T8 construct: endogenous in cells
Procedure: as §1

[9] = target: T9, α5β1 integrin on the cell surface of CHL-1 (Homo sapiens, UniProt P05556+P08648); conditions: CHL-1 (melanoma); IIA1 10 μg/ml; background MFI ~5
T9 construct: endogenous in cells
Procedure: as §1

[10] = target: T10, α5β1 integrin on the cell surface of A549 (Homo sapiens, UniProt P05556+P08648); conditions: A549 (lung); IIA1 10 μg/ml; background MFI ~5
T10 construct: endogenous in cells
Procedure: as §1

[11] = target: T11, α5β1 integrin on the cell surface of SN12C (Homo sapiens, UniProt P05556+P08648); conditions: SN12C (renal); IIA1 10 μg/ml; background MFI ~5
T11 construct: endogenous in cells
Procedure: as §1

[12] = target: T12, α5β1 integrin on the cell surface of C8161 (Homo sapiens, UniProt P05556+P08648); conditions: C8161 (melanoma); IIA1 10 μg/ml; background MFI ~5
T12 construct: endogenous in cells
Procedure: as §1

[13] = target: T13, α5β1 integrin on the cell surface of ES-2 (Homo sapiens, UniProt P05556+P08648); conditions: ES-2 (ovarian); IIA1 10 μg/ml; background MFI ~5
T13 construct: endogenous in cells
Procedure: as §1

[14] = target: T14, α5β1 integrin on the cell surface of A2058 (Homo sapiens, UniProt P05556+P08648); conditions: A2058 (melanoma); IIA1 10 μg/ml; background MFI ~5
T14 construct: endogenous in cells
Procedure: as §1

[15] = target: T15, α5β1 integrin on the cell surface of 786-0 (Homo sapiens, UniProt P05556+P08648); conditions: 786-0 (renal); IIA1 10 μg/ml; background MFI ~5
T15 construct: endogenous in cells
Procedure: as §1

[16] = target: T16, α5β1 integrin on the cell surface of MIA PACA-2 (Homo sapiens, UniProt P05556+P08648); conditions: MIA PACA-2 (pancreas); IIA1 10 μg/ml; background MFI ~5
T16 construct: endogenous in cells
Procedure: as §1

[17] = target: T17, α5β1 integrin on the cell surface of HT1080 (Homo sapiens, UniProt P05556+P08648); conditions: HT1080 (fibrosarcoma); IIA1 10 μg/ml; background MFI ~5
T17 construct: endogenous in cells
Procedure: as §1

T8 sequence (P08648 42-894 limits assumed): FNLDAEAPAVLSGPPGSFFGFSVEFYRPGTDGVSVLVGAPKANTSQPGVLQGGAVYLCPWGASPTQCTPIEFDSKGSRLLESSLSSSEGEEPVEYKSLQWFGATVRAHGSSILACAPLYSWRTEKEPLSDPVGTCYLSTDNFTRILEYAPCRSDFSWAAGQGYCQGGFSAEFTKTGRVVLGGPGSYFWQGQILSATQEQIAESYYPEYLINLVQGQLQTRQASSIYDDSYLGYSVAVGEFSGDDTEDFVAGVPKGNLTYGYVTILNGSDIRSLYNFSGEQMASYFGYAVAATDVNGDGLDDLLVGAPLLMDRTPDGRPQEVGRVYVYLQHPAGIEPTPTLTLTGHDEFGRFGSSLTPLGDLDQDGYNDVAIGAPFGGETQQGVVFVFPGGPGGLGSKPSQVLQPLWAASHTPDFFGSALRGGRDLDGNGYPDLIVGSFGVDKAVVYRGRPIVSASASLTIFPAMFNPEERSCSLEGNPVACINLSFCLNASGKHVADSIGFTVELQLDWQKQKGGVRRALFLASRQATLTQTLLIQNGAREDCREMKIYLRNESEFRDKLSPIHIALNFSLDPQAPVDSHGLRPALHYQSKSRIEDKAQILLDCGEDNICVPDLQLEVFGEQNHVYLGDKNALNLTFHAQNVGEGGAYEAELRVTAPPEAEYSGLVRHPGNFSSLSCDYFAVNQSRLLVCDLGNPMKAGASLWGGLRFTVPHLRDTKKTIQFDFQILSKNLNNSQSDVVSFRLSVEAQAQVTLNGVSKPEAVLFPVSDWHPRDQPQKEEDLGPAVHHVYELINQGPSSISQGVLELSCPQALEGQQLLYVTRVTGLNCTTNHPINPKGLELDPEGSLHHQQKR
T8 sequence (P08648 895-1049 limits assumed): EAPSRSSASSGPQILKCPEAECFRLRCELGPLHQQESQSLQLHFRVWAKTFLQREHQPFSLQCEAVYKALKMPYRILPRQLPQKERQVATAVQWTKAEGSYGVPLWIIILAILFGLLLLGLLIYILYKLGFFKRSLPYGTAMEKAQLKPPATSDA
T8 sequence (P05556 21-798): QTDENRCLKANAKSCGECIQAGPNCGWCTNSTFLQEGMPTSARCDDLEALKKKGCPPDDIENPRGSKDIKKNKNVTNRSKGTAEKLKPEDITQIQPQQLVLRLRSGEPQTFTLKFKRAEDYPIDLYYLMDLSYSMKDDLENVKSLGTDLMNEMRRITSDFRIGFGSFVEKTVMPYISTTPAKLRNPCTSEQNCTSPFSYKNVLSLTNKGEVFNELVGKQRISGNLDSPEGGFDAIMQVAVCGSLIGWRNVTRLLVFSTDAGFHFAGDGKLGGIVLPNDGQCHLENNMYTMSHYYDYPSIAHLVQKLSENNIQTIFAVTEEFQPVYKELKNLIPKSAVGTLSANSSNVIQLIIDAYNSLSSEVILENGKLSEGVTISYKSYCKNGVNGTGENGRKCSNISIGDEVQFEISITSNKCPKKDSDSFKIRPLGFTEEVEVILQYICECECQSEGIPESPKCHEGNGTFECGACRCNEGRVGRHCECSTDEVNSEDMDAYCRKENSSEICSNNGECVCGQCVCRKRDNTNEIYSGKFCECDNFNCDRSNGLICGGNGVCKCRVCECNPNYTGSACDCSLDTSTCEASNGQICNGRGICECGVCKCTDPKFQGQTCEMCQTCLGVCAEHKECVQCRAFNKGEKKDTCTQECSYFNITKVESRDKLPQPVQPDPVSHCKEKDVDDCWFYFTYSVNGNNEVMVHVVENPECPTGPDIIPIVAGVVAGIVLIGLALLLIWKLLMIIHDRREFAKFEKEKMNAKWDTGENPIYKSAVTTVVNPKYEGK
T15 sequence (P08648 42-894 limits assumed): as the sequence (P08648 42-894 limits assumed) above
T15 sequence (P08648 895-1049 limits assumed): as the sequence (P08648 895-1049 limits assumed) above
T15 sequence (P05556 21-798): as the sequence (P05556 21-798) above

B1: IIA1: parent mouse IgG1 class anti-α5β1 antibody shown to inhibit α5β1 integrin binding to fibronectin (antibody, V domains shown)
VH: MAVLGLLLCLVTFPSCVLSQVQLKESGPGLVAPSQSLSITCTISGFSLTDYGVHWVRQPPGKGLEWLVVIWSDGSSTYNSALKSRMTIRKDNSKSQVFLIMNSLQTDDSAMYYCARHGTYYGMTTTGDALDYWGQGTSVTVSS
VL: MDFQVQIFSFLLISASVIMSRGQIVLTQSPAIMSASLGERVTMTCTASSSVSSNYLHWYQQKPGSAPNLWIYSTSNLASGVPARFSGSGSGTSYSLTISSMEAEDAATYYCHQYLRSPPTFGGGTKLEIK
modifications: mus muscalus
- α5β1 Surface Expression (MFI) [1]: 87.5 MFI
- α5β1 Surface Expression (MFI) [2]: 67.1 MFI
- α5β1 Surface Expression (MFI) [3]: 261.6 MFI
- α5β1 Surface Expression (MFI) [4]: 132.2 MFI
- α5β1 Surface Expression (MFI) [5]: 36.6 MFI
- α5β1 Surface Expression (MFI) [6]: 88.5 MFI
- α5β1 Surface Expression (MFI) [7]: 42.5 MFI
- α5β1 Surface Expression (MFI) [8]: 5.7 MFI
- α5β1 Surface Expression (MFI) [9]: 6.8 MFI
- α5β1 Surface Expression (MFI) [10]: 71.41 MFI
- α5β1 Surface Expression (MFI) [11]: 129.1 MFI
- α5β1 Surface Expression (MFI) [12]: 122 MFI
- α5β1 Surface Expression (MFI) [13]: 132.8 MFI
- α5β1 Surface Expression (MFI) [14]: 36.2 MFI
- α5β1 Surface Expression (MFI) [15]: 144.4 MFI
- α5β1 Surface Expression (MFI) [16]: 61.9 MFI
- α5β1 Surface Expression (MFI) [17]: 421.7 MFI
